Laboratory results: a protein production outcome set (Wang et al. 2014)

Assay: label from the status in PepcDB records

Sequence	protein production
MTAEETVNVKEVEIIKLILDFLNSKKLHISMLALEKESGVINGLFSDDMLFLRQLILDGQWDEVLQFIQPLECMEKFDKKRFRYIILKQKFLEALCVNNAMSAEDEPQHLEFTMQEAVQCLHALEEYCPSKDDYSKLCLLLTLPRLTNHAEFKDWNPSTARVHCFEEVCVMVAEFIPADRKLSEAGFKASNNRLFQLVMKGLLYECCVEFCQSKATGEEITESEVLLGIDLLCGNGCDDLDLSLLSWLQNLPSSVFSCAFEQKMLNIHVDKLLKPTKAAYADLLTPLISKLSPYPSSPMRRPQSADAYMTRSLNPALDGLTCGLTSHDKRISDLGNKTSPMSHSFANFHYPGVQNLSRSLLLENTECHSIYEESPERSDTPVETQQPVSIEPMCQGSGLEKEPANGAQNPVPAKQQEKNELRDSTEQFQEYYRQRLRYQQHLEQKEQQRQIYQQMLLEGGVNQEDGPDQQQNLTEQFLNRSIQKLGELNIGMDSLGNEVPVLNQQCLGSKNSGSNNSSVTSFSSPPQDSSQRLTHDTSNIHTSTPRNPGSTNHIPFLEESPCGSQNSSEHSVVKPSPGDSSGSLSRSKGEEDDKSKKQFVCINTLEDTQAVRAVAFHPSGSLYAVGSNSKTLRVCAYPEKLDTSAHDGPKQPVVRFKRNKHHKGSIYCVAWSPCGQLLATGSNDKYVKVLPFNAETCNATGPDLEFSMHDGTIRDLAFMEGPESGGAILISAGAGDCNIYTTDCQRGQGLHALSGHTGHILALYTWSGWMIASGSQDKTVRFWDLRVPSCVRVVGTTFHGTGSAVASVAVDPSGRLLATGQEDSSCMLYDIRGGRMVQSYHPHSSDVRSVRFSPGAHYLLTGSYDMKIKVTDLQGDLTKQLPLMVVGEHKDKVIQCRWHTQDLSFLSSSADRTVTLWTYSG	failed
MTAFILVSGMFTGTHIWQDTAARLTARGAEVHTVALTGLDAPRAAAAPGVDLETHIADVLAVIDSVGAAGDRRIVLVGHDYGIHPAVGAADRRAERVDRIVHLDSGLPRDGVPALAAVPDQSLRERLAGAAGADGVLPPPAHEEWPRWGSTAGVPDAALDRLTALAAPQPLGTLLQPLRLTGAVDPVPTTGVLCTGNGTSIELVQMLVRLGDPALRPLTDPRVSFFELPTGHWPMLSLPAELTDVLLRAAAG	failed
MTAGHGIAALPGTMRVFERGWLSSNNILFFDDDAHGGCALVDSGYLTHAPQTVALARHALQGRPLRRLLNTHLHADHCGGNAALQAAYGCRIRVPAAQIGDVRRWDTDALSYRPTGQQCERFTLPEGDTAEAGLADGMTARLGGLDWQVISAPGHDPHAVILYSPDTRVLLSADALWERGFGVIFPELEGESGFAEQEAILACIARLGARVVVPGHGRPFTEVDAAIDAARGRLAYLRADPERNALHALRVLVKFKLLEQQAMTREALAAWFAQASLIPRLQARFFAATPLPALLEATVAALVKAGAAAVEATRIVNRG	failed
MTALAVTLKNWFFTRNSMILNANILLFIILFNTLPFEPQVVTGISILVFVAILWLTEAIHVSITALLIPMLAVFLGVFNTQAALNNFSNSIIFLFLGGFALAAALHKQKLDQALADKVLLIARGRMSVAVFMLFGVSAGLSMWISNTATAAMMLPLVLGVMTKLDAKKNHNTFLFVLLGIAYSASIGGIATLVGSPPNAIAAAEVGLNFTEWMKLGLPISLILMPIAILVLYTMTKPDLSHKFELDHKPVEWTNGKMVTLAIFLLTVTLWIFSKPINTMLGGFAKFDTLVAIGAILLLGASRAVEWKDIEKTTDWGVLILFGGGICLSNVLKATGTSVFLAHSLTGFLEQAGVLLTILSVVAFVVFLTEFASNTASAALLVPVFATIAEALGLSPVILSALIAVAASCAFMLPVATPPNAIVFGTGHIKQKEMMRIGFVLNIACIGALTLFAWLFW	failed
MTAMSPEQSRAIAKKLAFWATLACLLAVVVIMLGAWTRLVHAGLGCPDWPGCYGFLTVPQDETRIAIANARFPETPVDVSKGWPEMIHRYAAGTLGLLVFGLAIASVRKRRAGLPVKLPLFIAGFIVLQAAFGMWTVTLKLWPQVVALHLLGGFTTLSLLLLLTLRLRRRARESEAPRPAMAASLARLRPWLYGGLLLVIAQIALGAWTAANYAAVACTDLPTCQGQWWPEGMDFQHGFDITQHVGPNYLGGQLTSDGRVAIHVSHRLGAVLVLGYLAILLGLLWRQRAQSGLDRAIALVGGALVLQFCLGLTNVWLHIPLIIAVAHNAMGAGLLLSMVHLIWRHHQLALPALSPAPHTTTINREVTA	failed
MTARARSALLDAEHIVGYTTYVELLPDEITEGADDIYNTPMCGEVSRTEEAIDRALAGNDVAIIGSGDPNVYALAGLALEIIESKGATATMLDFDVVPGVP	failed
MTASPIVVFDLDGTLIDTAPDLINALNFILVREGMPAVPMAVARNMIGQGARRLLERGLELDGRVIAQDDVNRLTVDFIDYYAAHIADESRPFEGLEATLDELSESGYRFAVCTNKLEWLSKLLLDRLGLSPRFAAICGADTFGVAKPDPAILRETVAKAGGDLSAAIMVGDAGPDVGVARRAGVPVIGVEFGYTEVPIAELQPDLLVGHMRELPNAVGRLLPR	not failed
MTATWEKKEGNEGLLTVTVPAEKVNKALDQAFKKVVKQINVPGFRKGKVPRPIFEQRFGVEALYQDAIDILLPDAYGEAIDETDIKPVAQPEVSVTQIEKGKDFIFEATVTVEPEVKLGDYKGLEIEKQETELSDDELQEAIDHSLGHLAEMVVKEDGVVENGDTVNIDFSGSVDGEEFEGGQAEGYDLEIGSGSFIPGFEEQLEGMKVDEEKDVVVTFPEEYHAEELAGKEATFKTKVNEIKFKEVPELTDEIANELDAEANTVDEYKENLRKRLAEQKATDAENVEKEEAITKATDNTTIDIPEAMVNTELDRMVSEFAQRIQQQGLDLQTYFQISGQDETQLREQMKDDAEQRVKTNLTLTAIAEAEKIEATDEDIDKELEKMSKQFNISVEDIKNTLGNTDIIKNDVRIQKVIDLLRDNAKFVEGTKED	failed
MTAVSSPACAIAGKPPMLSMRDIWLRLHRWLALCLGLFLALLGLSGSLLELKGPILRWEVGAQMLQLAPGEHGTLLQQDAWIRAASDAYPQLHKVFGAAPPRQGFLESDNVIVFGALKERPGTGIAMIDPYSGEPRGFFVFEDLWLAKLVALHRSLLLPPAWGSNLVLLYGLALLGSLGSGLYLWWPGRRSWWKAASLRPGSRGNRRLREWHNVAAAWLCLPLLLIAGSGAWLARPDLFTWPGAQPMAIKPLFSAAHGHLLLGTPGAWLAFLCGISLPLLYLTGLLLWWRKRAARRAVQSFKETSHDTP	failed
MTAYIIVGLTPKDAEKLQQYGARVASTLAKYSGEVLVKGSVEQLHGKFEHKAQVILEFPSREDAYNWYHSEEYQALISTRDLGMDSQFQLIG	not failed
MTAYWIAHVTIHDMQQYQEYMKLAPAAFQKYGAKFLARGGESVCVEGQAYQRHVIIEFPDLATAQQCYDSEEYKQARLAREGCADVMISFVEG	failed
MTCLFSDAPIPDHLYGAIVALGNFDGFHLGHQAVVAAAVARGHAEGRPVIVATFDPHPVRFFCPDLPPFALTTIPQRARLFEKAGADATFVIRFSEAMANLSPEEFIQQQIIDHLKAAGVVTGRDFTFGKGRKGGVDLLQAMGQNLNISVDTIMPVCDQQGAISSTRIREALKQGDPETAARLLSRP	failed
MTDAAALPGQPRGGVLSGPATRRAVNVLAPNASAMTLDGTNTWIVAEPDSELAVVIDPGPLDDVHLRNVVDTAERAGRRIALTLLTHGHPDHAEGAARFAELTGTNVRALDPALRLGDEGLAPGDVVTVGGLELRVVPTPGHTSDSLCFHLPADRAVLTGDTVLGRGTTVVAHPDGRLGDYLDSLRRLRSLTVDDGVHTVLPGHGPVLDDAQGAVEFYLAHRAHRLAQVETAVENGYRAPAEVVAHVYADVDRSLWPAAELSVRAQMDYLREHGLI	failed
MTDAPADAPLDADARRAVKPVICYPNDSLPRPDLALYRAARASARKTGEVLVPPREGRCFEVKAGQFFRISSVEGPQVGDLNLHNLHDLTERFFSGKTRALHGTHVTTGERLWSNLPYLRPMATIIEDTLGWYGIDQYGGSVHDVIGTRCDPYTGNLLAGGHYHHCCHSNLTRALADHTGLPLHEAEMLVHDVLNVFMCTGFTRDTGQYFMKASPVRPGDYLEFFAEIDLLGNLSACPGGDCSSEHSSDTASCHPLLVEIFAPAEGMLGDWPSPSVNGYDRSHGR	not failed
MTDEKKVPSKPARPARKPRADKPADAKPAAVPKVAAPAVVEGSSTNAAAVKKSLRDGGMTALPSEILFAVGSIPLVVDKDALSTLAAALVASDDPSTWFVANRELIRAVVFVPQQNNVLRATPLLSVRPVASLSSVHNWQVRNHLSGLHVVVGGTGAGKSKWLNAQTPDVTIRWGEPGETFDMEESSIAVADLTEMLAVALLLATADYRVVIDSFRNLVFGITGAAGPGGVSVALYAALTSLNNICAELGVLLVAAINPMSSDDKVSLVYNNIAASVAGMTVVNNAAVVSQTIRSGTGRIFSGEPAPRNDSPVEYHEPRHTQLDEPSGPSARIRLESNNIDPDDENDNRPRRGARISL	not failed
MTDFQKQFFARLNIEEKQKVSFEDLSNIMYAMAQTVPFENLNVLEKNFKEISQENLKEKILVNNRGGLCYELNPTMYYFLKDAGFDVYLVSGTVYNAANSIWAVDSGHIATILKHHNELYLIEVGFGSYLPLAPVPFSGEVVQSVTGDYRIRKEMTEKGNYMLEMRKNDEFLDQSSTDDWTLGYAFYIEEVDEKKQMQHKKLLLNTMAHHLTKYLLL	failed
MTDIFLEGGRALIGTELVETSLSVAGTDIARVDAARGRARLAIDARNLLVLPGIVDLHGDAFERQMMPRAGVDFPIDVALADSDRQAISNGITTVFHATTCSWEPGLRSADNARGLMEAIERQRPQFAADTRFHLRHETYNLDAEAEISRWLAEGRVDLFAFNDHMDGTVADMAKPRKRNRMVERTGLSSEDFDGLVDRVISRAADVPASVSRLAASARAADVRMLSHDDATPAMRREFRELGADIAEFPINEETARAAASHGDAIVYGAPNVVRGGSHTGWTRASDMIAKGLCSVLASDYYYPAQLLAAFRLAADGVLPLTEAWSLVSAEPARAAGLADRGILAEGRRADILLVDDTVPLRPRLVAVISGGKLVHLTDATRLLSAAAAPREAVVAA	failed
MTDIIREYYNKNSKNEWLRLNDPYNRLELFSTMYMIKEYFPQEGKILDIGSGPGRYSIELLKRGYEVSLMDLSEKSIDMAKNNIESMGLKANDYICGDALYLDFIKDNTFDGILLMGPMYHVKSREDRIRILENCMRILKPGGIILIAYINSLGVLKVGLSDFPQEYKDINKIYDLFDEKGFSQEESFTETYFTVPEKAISEVNEVGFNILSRAGAESFLSGQAFYMTKYYLEDKEIYFNLLKVATEKCEDERFRDSTEHLIIVAKK	failed
MTDIMARFVGYTGKVLPDDVTAKLQDLHKKETSQLADVIFTTMIENQRLAKELDRPSCQDTGVIQFLVECGANFPLIGELEALLRESVIKATIDSPLRHNSVETFDEYNTGKNVGKGTPTVFWEIVPNSDQCSIYTYMAGGGCSLPGKAMVLMPGAGYEGVTRFVLDVMTSYGLNACPPLLVGVGVATSVETAALLSKKALMRPIGSHNDNERAALLEKMLEDGINKIGLGPQGMSGNTSVMGVNIENTARHPSTIGVAVNVGCWSHRKGHIVFDKDLNYTITSHKGVAF	failed
